The assay has as its target T1, Abeta peptide (40-amino acid Abeta peptide, SEQ ID NO: 1), biotinylated (human, N-terminal biotin or C-terminal lysine-linked biotin, separated from the peptide by a PEG6 linker).
T1 construct: Synthesized by Genscript; also called amyloid beta; test peptide
Put plainly: BLI (Octet HTX), biotinylated Abeta on streptavidin sensors, 1 uM VHH, 1:1 fit. On the procedure:
Binding affinity was measured using Biolayer Interferometry (BLI) with a ForteBio Octet HTX instrument. Biotinylated antigen was loaded onto streptavidin biosensors at a concentration of 100 nM in kinetics buffer (PBS+1% BSA). The binding experiments were performed with the following steps: 1) baseline in kinetics buffer for 30 seconds, 2) loading of antigen for 180 seconds, to achieve a loading response of at least 1 nm, 3) baseline for 60 seconds, 4) association of 1 μM VHH for 300 seconds, and 5) dissociation into kinetics buffer for 180 seconds. Curves were fit to a 1:1 binding model using the ForteBio software. A negative control was included in all plates, which was un-transfected mammalian cells subjected to the same purification process, to account for the effect of any carryover protein contaminants from cell culture.

T1 sequence (peptide, as listed by the source): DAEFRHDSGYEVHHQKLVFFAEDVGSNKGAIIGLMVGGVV

B1: vhhLib02-26 (VHH)
VHH: EVQLVESGGGLVQPGGSLRLSCAASGFTFSAYIMSWYRQAPGKQRELVGAIVSGGLTYYADSVKGRFTISRDNSKNTLYLQMNSLRAEDTAVYYCARHWRWYDSNLVFDLWGQGTLVTVSS
notes: The entry as printed includes HHHHHH
The Kd is the equilibrium constant for the complex coming apart. A high value points to weaker binding. The koff is the first-order rate constant of dissociation. A lower koff goes with a long-lived complex. As a reminder, the kon is the second-order rate constant of association. A high value points to faster complex formation. Consider B1, for which the Kd came to 249 nM, the off-rate (koff) was found to be 0.0137 s⁻¹ and the kon stood at 55000 M⁻¹ s⁻¹.

B2: vhhLib01-58 (VHH)
VHH: QVQLVESGGGLVQPGGSLRLSCAASGSIFSPNHMGWYRQAPGKQRELVAAIYSGGTTNYADSVKGRFTISRDNAKNTVYLQMNSLKPEDTAVYYCARRTFLRGWSGYLPWFDVWGQGTLVTVSS
notes: as for B1
Regarding B2, binding was put at a Kd of 264 nM, the koff amounted to 0.0045 s⁻¹ and the on-rate constant (kon) was 17000 M⁻¹ s⁻¹.

(Values after patent US20230365667A1 (Merck Sharp & Dohme, published 2023).)
